Reference: patent US6218168A, “Process for preparing O-acetylserine, L-cysteine and L-cysteine-related products” (Consortium fur elektrochemische Inudstrie GmbH, priority 1995, dated 2001)

B1: cysEXII: triple mutant Lys97->Gln97, Gly238->Ser238, Phe267->Leu267 (protein, UniProt P0A9D4 1-273, looked up, variant K97Q G238S F267L)
Serine acetyltransferase: MSCEELEIVWNNIKAEARTLADCEPMLASFYHATLLKHENLGSALSYMLANKLSSPIMPAIAIREVVEEAYAADPEMIASAACDIQAVRTRDPAVDQYSTPLLYLKGFHALQAYRIGHWLWNQGRRALAIFLQNQVSVTFQVDIHPAAKIGRGIMLDHATGIVVGETAVIENDVSILQSVTLGGTGKSGGDRHPKIREGVMIGAGAKILGNIEVGRGAKIGAGSVVLQPVPPHTTAASVPARIVGKPDSDKPSMDMDQHFNGINHTLEYGDGI
B2: cysEXXIII: triple mutant Ala167, Val237, Ser238 (protein, UniProt P0A9D4 1-273, looked up, variant T167A A237V G238S)
Serine acetyltransferase: MSCEELEIVWNNIKAEARTLADCEPMLASFYHATLLKHENLGSALSYMLANKLSSPIMPAIAIREVVEEAYAADPEMIASAACDIQAVRTRDPAVDKYSTPLLYLKGFHALQAYRIGHWLWNQGRRALAIFLQNQVSVTFQVDIHPAAKIGRGIMLDHATGIVVGEAAVIENDVSILQSVTLGGTGKSGGDRHPKIREGVMIGAGAKILGNIEVGRGAKIGAGSVVLQPVPPHTTAVSVPARIVGKPDSDKPSMDMDQHFNGINHTFEYGDGI
B3: cysEV: triple mutant Val237, Ser238, Ile256 (protein, UniProt P0A9D4 1-273, looked up, variant A237V G238S M256I)
Serine acetyltransferase: MSCEELEIVWNNIKAEARTLADCEPMLASFYHATLLKHENLGSALSYMLANKLSSPIMPAIAIREVVEEAYAADPEMIASAACDIQAVRTRDPAVDKYSTPLLYLKGFHALQAYRIGHWLWNQGRRALAIFLQNQVSVTFQVDIHPAAKIGRGIMLDHATGIVVGETAVIENDVSILQSVTLGGTGKSGGDRHPKIREGVMIGAGAKILGNIEVGRGAKIGAGSVVLQPVPPHTTAVSVPARIVGKPDSDKPSMDIDQHFNGINHTFEYGDGI
B4: cysEVI: double mutant Ser238, Ile256 (protein, UniProt P0A9D4 1-273, looked up, variant G238S M256I)
Serine acetyltransferase: MSCEELEIVWNNIKAEARTLADCEPMLASFYHATLLKHENLGSALSYMLANKLSSPIMPAIAIREVVEEAYAADPEMIASAACDIQAVRTRDPAVDKYSTPLLYLKGFHALQAYRIGHWLWNQGRRALAIFLQNQVSVTFQVDIHPAAKIGRGIMLDHATGIVVGETAVIENDVSILQSVTLGGTGKSGGDRHPKIREGVMIGAGAKILGNIEVGRGAKIGAGSVVLQPVPPHTTAASVPARIVGKPDSDKPSMDIDQHFNGINHTFEYGDGI
B5: cysE-Del255: carboxyterminal deletion of 18 amino acids, terminal Asp255 (protein, UniProt P0A9D4 1-255, looked up, fragment)
chain: MSCEELEIVWNNIKAEARTLADCEPMLASFYHATLLKHENLGSALSYMLANKLSSPIMPAIAIREVVEEAYAADPEMIASAACDIQAVRTRDPAVDKYSTPLLYLKGFHALQAYRIGHWLWNQGRRALAIFLQNQVSVTFQVDIHPAAKIGRGIMLDHATGIVVGETAVIENDVSILQSVTLGGTGKSGGDRHPKIREGVMIGAGAKILGNIEVGRGAKIGAGSVVLQPVPPHTTAAGVPARIVGKPDSDKPSMD

Tests used:
serine acetyltransferase = experiment: Serine acetyltransferase enzyme activity test with and without L-cysteine (inhibitor constant Ki, specific activity); type: biochemical, E. coli; conditions: for Ki: inhibitor L-cysteine
Description: Any method which enables the activity of the serine acetyltransferase to be determined in the presence of cysteine can be used for determining the cysteine sensitivity of this enzyme. For example, the serine acetyltransferase activity can be determined using the method described by Kredich and Tomkins, J. Biol. Chem. 241: 4955-4965 (1966). In this test, the enzyme test mixture contains the substrate, L-serine, and the cofactor, acetyl-coenzyme A. The reaction is started by adding enzyme and monitored, in a spectro photometer, by observing the decrease in absorption at 232 nm which is elicited by the cleavage of the thioester bond in the acetyl-coenzyme A.
The above-described enzyme test is suitable for determining the cysteine sensitivity of any serine acetyltransferase enzyme, including the enzymes which have a modified carboxyl terminus. Inhibition of the serine acetyltransferase activity is tested in the presence of differing concentrations of L-cysteine in the reaction mixture. The catalytic activity of the different serine acetyltransferase enzymes is determined in the presence and absence of L-cysteine, and the inhibitor constant, Ki, is ascertained from this (Kredich and Tomkins, J. Biol. Chem., 241, 4955-4965 (1966)).
In order to investigate the biochemical basis of the cysteine secretion of the revertants, the activity of the serine acetyltransferase was determined in vitro, and the ability of cysteine to inhibit the enzyme was measured. For the determination, use was made of S30 extracts (cell homogenates centrifuged at 30,000 g and 4° C. for 20 minutes) of the selected revertants, the starting strains and the comparison strain, E. coli W3110 (ATTC 27325).
The biochemical parameters such as enzyme activity and inhibitor constant, Ki, were determined in an analogous manner to that described in Example 1.
The plasmids resulting from this cloning were designated pACYC184/cysE-Del in accordance with the extent of their deletion (cf. FIG. 9 for the plasmid map). Determination of the enzymic activity and the inhibitor constant, Ki, and also the cross-feeding test, were carried out in analogy with the description in Example 1. DNA sequence analysis was used to confirm that the deletions had been correctly introduced.
Determination of the enzymic activity and of the inhibitor constant Ki, and also the cross-feeding test, were carried out in analogy with the description in Example 1.

production strain JM15 = experiment: Cysteine production in 1 L fermenter, JM15 with plasmid-encoded cysE alleles; type: cell-based, E. coli; conditions: 48 h, JM15 transformed with plasmid
Procedure: Influence of different, plasmid-encoded cysE alleles on the production of L-cysteine or products derived from L-cysteine in a 1 L fermenter using the host strain JM15 20 mL of LB medium (1% tryptone, 0.5% yeast extract, 0.5% NaCl) contained in a 100 mL Erlenmeyer flask were inoculated with a single colony of the production strain JM15 (CGSC#5042) which had been transformed with the respective cysE plasmid.
After having been incubated for 7 hours in a bacterial shaker (30° C., 150 rpm), the respective preliminary cultures were transferred to 100 mL of SM1 medium. The SM1 medium contained 5 g/L glucose, 5 mg/L vitamin B1, 3 g/l KH2 PO4, 12 g/L K2 HPO4, 0.3 g/L MgSO4×7 H2 O, 0.1 g/L NaCl, 5 g/L (NH4)2 SO4, 14.7 mg/L CaCl2×2 H2 O, 2 mg/L FeSO4×2 H2 O, 1 g/L Na3 citrate×2 H2 O, 1 ml/L trace element solution and 25 mg/L tetracycline. The trace element solution was composed of 0.15 g/L Na2 MoO4×2 H2 O, 2.5 g/L H3 BO3, 0.7 g/L CoCl2×6 H2 O, 0.25 g/L CuSO4×5 H2 O, 1.6 g/L MnCl2×4 H2 O and 0.3 g/L ZnSO4×7 H2 O. The cultures were shaken in 1 L Erlenmeyer flasks at 30° C. and at 150 rpm for 17 h. After this incubation, the OD600 was between 4 and 5. The subsequent fermentation was carried out in Braun-Melsungen BIOSTAT M research fermenters. A culturing vessel having a total volume of 2 L was used.
The fermentation medium contained 15 g/L glucose, 5 g/L NaCl, 0.3 g/L MgSO4×7 H2 O, 15 mg/L CaCl2×2 H2 O, 75 mg/L FeSO4×7 H2 O, 1 g/L Na3 citrate×2 H2 O, 1.5 g/L KH2 PO4, 1 mL of trace element solution (see above), 5 mg/L vitamin B1, 2.5 g/L yeast extract (Difco), 2.5 g/L tryptone (Difco) and 25 mg/L tetracycline.
The glucose concentration in the fermenter was initially adjusted to a value of 15 g/L by pumping in a 700 g/L (w/v) (sterilized) glucose solution, and the pH was adjusted to 7.0 by pumping in a 25% NH4 OH solution. After an OD600 of 10 had been reached, 300 mg per hour were supplied from a sterile 100 g/L (w/v) stock solution of thiosulfate. 100 mL of preliminary culture were pumped into the fermenter vessel for the inoculation. The starting volume was approximately 1 L. The cultures were initially stirred at 400 rpm and aerated with 1.5 vvm of compressed air which had been sterilized by passing through a sterile filter. The fermentation was carried out at a temperature of 30° C.
The pH was maintained at a value of 7.0 by means of automatic correction with 25% NH4 OH. The oxygen saturation in the fermentation broth had at no time during the fermentation to fall below 20%; the stirring speed was used to ensure this. The glucose content of the nutrient solution, the optical density and the cysteine content were determined at two- to three-hourly intervals. The glucose content was determined enzymically using a glucose analyzer from YSI. The concentration of the glucose was adjusted to between 10 and 20 g/L by means of continuously feeding in this compound.
The content of cysteine in the medium was determined […] from the cell-free super-natant of the sample using the method of Gaitonde, M. K. (1967), Biochem. J. 104, 627-633.
The fermentation was terminated after 44-50 h.

[1] = Table 1a, 1 mM L-serine, 0.1 mM acetyl-CoA
[2] = Table 1a, serine acetyltransferase activity
[3] = Table 4, alleles from site-specific mutagenesis
[4] = Table 1b, carboxyterminal deletions

Molecule | Ki (serine acetyltransferase; [1]) [µM] | spec. act. (serine acetyltransferase; [2]) [µmol/min/mg] | Ki (serine acetyltransferase; Table 2, alleles from chemical mutagenesis) [µM] | Cysteine yield (production strain JM15) [g/L] | Ki (serine acetyltransferase; [3]) [µM] | spec. act. (serine acetyltransferase; [4]) [μmol/min x mg] | Ki (serine acetyltransferase; [4]) [µM] | Ki (serine acetyltransferase; Table 6, carboxyterminal deletions) [µM]
B1 | 40 | 0.254 | 40 | 1.2 | – | – | – | –
B2 | 2300 | 0.085 | – | 2.7 | 2300 | – | – | –
B3 | 10 | 0.246 | – | 1.3 | 10 | – | – | –
B4 | 10 | 0.075 | – | 1.4 | 10 | – | – | –
B5 | – | – | – | 3.9 | – | 0.624 | 30 | 30
